Source: patent US9932382B2, “Kv2.1 channel-derived peptides and methods of use” (University of Pittsburgh—Of the Commonwealth System of …, priority 2014, dated 2018)

Test system: cortical neurons
Test: Viability of transfected neurons exposed to activated microglia (GFP+ cell counts)
Type: cell-based, rat
Conditions: overnight exposure to activated microglia; vector-expressing cells reduced by nearly 40%
Experimental: For electrophysiological experiments, mixed cortical neuronal/glial cultures were prepared from embryonic day 16 (E16) Sprague-Dawley rats (Charles River Laboratories, Wilmington, Mass., USA). Donor rats were euthanized by gradual CO2 exposure. Cortices were dissociated with trypsin, and the resultant cell suspension, adjusted to 670,000 cells per well, was plated on glass coverslips in 6-well plates as described previously (Hartnett et al., J Neurochem 68, 1836-1845, 1997). Non-neuronal cell proliferation was inhibited after two weeks in culture with 1-2 μM cytosine arabinoside, and cultures utilized at three to four weeks in vitro. For neuronal transfection, cells were treated for five hours in serum-free medium with 2 μL LIPOFECTAMINE™ 2000 (Invitrogen, Carlsbad, Calif.), 50 μL Optimem (GIBCO, Grand Island, N.Y.), and 1.5 μg DNA per well. For CHO cell transfections, cells were plated on coverslips in 24-well plates at a density of 5.6×10^4 cells per well for electrophysiological measurements or in 100 mm dishes at a density of 1.7×10^6 cells per dish for biochemical studies. […]
Viability of transfected neurons was assessed by cell counts of GFP+ cells. […] GFP+ cells were counted in 20 random areas per coverslip using a 20× objective. […]
It was next evaluated whether C1a441-522 was sufficient to protect neurons against oxidative injury. […]

B1: C1a441-522: distal segment of C1a, residues 441-522 of rat Kv2.1 (protein, UniProt P15387 441-522, looked up, fragment)
chain: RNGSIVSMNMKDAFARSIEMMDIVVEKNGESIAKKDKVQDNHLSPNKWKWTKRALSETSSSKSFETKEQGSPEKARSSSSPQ
effect of activated microglia on viability of peptide-expressing neurons: no detrimental effect
